Starred links: 1 amine or outer side, 2 acyl side, 3 side chain; linkers in the order of their positions; H or OH if unused. Non-standard residues stand in square brackets, D forms with d. Groups on a side chain read outwards from the residue. No end group written: not given here. *: point of attachment. C20 diacid = O=C(O)CCCCCCCCCCCCCCCCCCC(=O)*; γGlu = O=C(O)[C@H](CCC(=O)[*:2])N[*:1]; αMeF = C[C@](N)(Cc1ccccc1)C(=O)O; 4Pal = N[C@@H](Cc1ccncc1)C(=O)O; αMeL = CC(C)C[C@](C)(N)C(=O)O; Orn = NCCC[C@H](N)C(=O)O; AEEA = NCCOCCOCC(=O)O; Aib = CC(C)(N)C(=O)O
T1: human glucose-dependent insulinotropic polypeptide (GIP) receptor (human, UniProt P48546 22-466)
T1 construct: whole, on cells; Assayed as crude membranes of stably transfected CHO cells; also called hGIPR; human GIP receptor
T1 sequence (looked up): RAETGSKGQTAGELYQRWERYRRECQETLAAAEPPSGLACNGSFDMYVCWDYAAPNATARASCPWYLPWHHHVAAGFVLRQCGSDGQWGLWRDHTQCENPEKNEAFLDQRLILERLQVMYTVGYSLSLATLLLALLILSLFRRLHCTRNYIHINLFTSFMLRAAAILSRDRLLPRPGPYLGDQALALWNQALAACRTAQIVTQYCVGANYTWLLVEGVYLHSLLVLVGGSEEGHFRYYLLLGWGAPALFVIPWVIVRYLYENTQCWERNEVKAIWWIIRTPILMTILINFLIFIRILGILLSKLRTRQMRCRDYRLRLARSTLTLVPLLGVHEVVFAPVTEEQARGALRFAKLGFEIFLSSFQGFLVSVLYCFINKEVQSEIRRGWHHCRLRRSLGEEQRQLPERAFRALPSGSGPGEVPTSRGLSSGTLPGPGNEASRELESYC


Columns and labels:
[1] = molecular target: T1, human glucose-dependent insulinotropic …; assay: SPA, displacement of [125I]-GIP from hGIPR membranes, 0.1% bacitracin
human glucagon receptor = molecular target: T2, human glucagon receptor (human, UniProt P47871 26-477); assay: SPA, displacement of [125I]-Gcg from hGcgR membranes, 0.1% bacitracin
T2 construct: whole, on cells; Assayed as crude membranes of stably transfected HEK293 cells; also called hGcgR; GcgR
How it was run: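 Binding buffer: 25 mM HEPES pH 7.4, 2.5 mM CaCl₂, 1 mM MgCl₂, 0.003% Tween-20, protease inhibitors without EDTA. Counted by scintillation after 12 h incubation/settling at room temperature. Four-parameter nonlinear fit; Kᵢ given as geometric mean ± SEM of independent replicates run on different days.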

human GLP-1 receptor = molecular target: T3, human GLP-1 receptor (human, UniProt P43220 24-463); assay: SPA, displacement of [125I]-GLP-1 from hGLP-1R membranes, 0.1% bacitracin
T3 construct: whole, on cells; Assayed as crude membranes of stably transfected HEK293 cells; also called hGLP1R; hGLP-1R
How it was run: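 Binding buffer: 25 mM HEPES pH 7.4, 2.5 mM CaCl₂, 1 mM MgCl₂, 0.1% bacitracin, 0.003% Tween-20, protease inhibitors without EDTA. Four-parameter nonlinear regression; Kᵢ given as geometric mean ± SEM, n = independent replicates run on different days.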

T2 sequence (P47871 26-477): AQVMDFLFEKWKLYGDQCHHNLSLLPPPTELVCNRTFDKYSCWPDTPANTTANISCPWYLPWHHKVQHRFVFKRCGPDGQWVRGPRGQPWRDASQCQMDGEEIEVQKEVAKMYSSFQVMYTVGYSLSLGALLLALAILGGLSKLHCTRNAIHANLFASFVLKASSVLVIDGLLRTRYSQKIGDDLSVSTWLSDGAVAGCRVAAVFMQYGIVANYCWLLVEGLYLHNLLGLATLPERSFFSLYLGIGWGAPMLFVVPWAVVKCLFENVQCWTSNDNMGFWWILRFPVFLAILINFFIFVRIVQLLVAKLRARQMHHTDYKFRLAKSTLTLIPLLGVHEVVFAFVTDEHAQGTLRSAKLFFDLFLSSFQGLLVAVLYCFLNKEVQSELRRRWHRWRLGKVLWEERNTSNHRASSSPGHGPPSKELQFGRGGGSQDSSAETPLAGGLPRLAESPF

| Binder | Ki [1] | Ki (human glucagon receptor) | Ki (human GLP-1 receptor) |
| --- | --- | --- | --- |
| Y[Aib]EGTLISDYSI[αMeL]LDKK([AEEA-AEEA-γGlu-C20 diacid])HQ[Aib]EFVEYLLETGPSSGAPPPS-NH2 (N-terminus assumed; SMILES CC[C@H](C)[C@H](NC(=O)[C@H](CC(C)C)NC(=O)[C@@H](NC(=O)CNC(=O)[C@H](CCC(=O)O)NC(=O)C(C)(C)NC(=O)[C@@H](N)Cc1ccc(O)cc1)[C@@H](C)O)C(=O)N[C@@H](CO)C(=O)N[C@@H](CC(=O)O)C(=O)N[C@@H](Cc1ccc(O)cc1)C(=O)N[C@@H](CO)C(=O)N[C@H](C(=O)N[C@@](C)(CC(C)C)C(=O)N[C@@H](CC(C)C)C(=O)N[C@@H](CC(=O)O)C(=O)N[C@@H](CCCCN)C(=O)N[C@@H](CCCCNC(=O)COCCOCCNC(=O)COCCOCCNC(=O)CC[C@H](NC(=O)CCCCCCCCCCCCCCCCCCC(=O)O)C(=O)O)C(=O)N[C@@H](Cc1c[nH]cn1)C(=O)N[C@@H](CCC(N)=O)C(=O)NC(C)(C)C(=O)N[C@@H](CCC(=O)O)C(=O)N[C@@H](Cc1ccccc1)C(=O)N[C@H](C(=O)N[C@@H](CCC(=O)O)C(=O)N[C@@H](Cc1ccc(O)cc1)C(=O)N[C@@H](CC(C)C)C(=O)N[C@@H](CC(C)C)C(=O)N[C@@H](CCC(=O)O)C(=O)N[C@H](C(=O)NCC(=O)N1CCC[C@H]1C(=O)N[C@@H](CO)C(=O)N[C@@H](CO)C(=O)NCC(=O)N[C@@H](C)C(=O)N1CCC[C@H]1C(=O)N1CCC[C@H]1C(=O)N1CCC[C@H]1C(=O)N[C@@H](CO)C(N)=O)[C@@H](C)O)C(C)C)[C@@H](C)CC) [Example 72] | 0.0594 nM | 837 nM | 437 nM |
| Y[Aib]EGTLISDYSI[αMeL]LDKK([AEEA-AEEA-γGlu-C20 diacid])HQ[Aib]EFVEYLLEGGPSSGAPPPS-NH2 (N-terminus assumed; SMILES CC[C@H](C)[C@H](NC(=O)[C@H](CC(C)C)NC(=O)[C@@H](NC(=O)CNC(=O)[C@H](CCC(=O)O)NC(=O)C(C)(C)NC(=O)[C@@H](N)Cc1ccc(O)cc1)[C@@H](C)O)C(=O)N[C@@H](CO)C(=O)N[C@@H](CC(=O)O)C(=O)N[C@@H](Cc1ccc(O)cc1)C(=O)N[C@@H](CO)C(=O)N[C@H](C(=O)N[C@@](C)(CC(C)C)C(=O)N[C@@H](CC(C)C)C(=O)N[C@@H](CC(=O)O)C(=O)N[C@@H](CCCCN)C(=O)N[C@@H](CCCCNC(=O)COCCOCCNC(=O)COCCOCCNC(=O)CC[C@H](NC(=O)CCCCCCCCCCCCCCCCCCC(=O)O)C(=O)O)C(=O)N[C@@H](Cc1c[nH]cn1)C(=O)N[C@@H](CCC(N)=O)C(=O)NC(C)(C)C(=O)N[C@@H](CCC(=O)O)C(=O)N[C@@H](Cc1ccccc1)C(=O)N[C@H](C(=O)N[C@@H](CCC(=O)O)C(=O)N[C@@H](Cc1ccc(O)cc1)C(=O)N[C@@H](CC(C)C)C(=O)N[C@@H](CC(C)C)C(=O)N[C@@H](CCC(=O)O)C(=O)NCC(=O)NCC(=O)N1CCC[C@H]1C(=O)N[C@@H](CO)C(=O)N[C@@H](CO)C(=O)NCC(=O)N[C@@H](C)C(=O)N1CCC[C@H]1C(=O)N1CCC[C@H]1C(=O)N1CCC[C@H]1C(=O)N[C@@H](CO)C(N)=O)C(C)C)[C@@H](C)CC) [Example 73] | 0.036 nM | 292 nM | 117 nM |
| Y[Aib]EGTFISDYSI[αMeL]LDKK([AEEA-AEEA-γGlu-C20 diacid])HQ[Aib]D[αMeF]VE[4Pal]LLAGGPSSGAPPPS-NH2 (N-terminus assumed; SMILES CC[C@H](C)[C@H](NC(=O)[C@H](Cc1ccccc1)NC(=O)[C@@H](NC(=O)CNC(=O)[C@H](CCC(=O)O)NC(=O)C(C)(C)NC(=O)[C@@H](N)Cc1ccc(O)cc1)[C@@H](C)O)C(=O)N[C@@H](CO)C(=O)N[C@@H](CC(=O)O)C(=O)N[C@@H](Cc1ccc(O)cc1)C(=O)N[C@@H](CO)C(=O)N[C@H](C(=O)N[C@@](C)(CC(C)C)C(=O)N[C@@H](CC(C)C)C(=O)N[C@@H](CC(=O)O)C(=O)N[C@@H](CCCCN)C(=O)N[C@@H](CCCCNC(=O)COCCOCCNC(=O)COCCOCCNC(=O)CC[C@H](NC(=O)CCCCCCCCCCCCCCCCCCC(=O)O)C(=O)O)C(=O)N[C@@H](Cc1c[nH]cn1)C(=O)N[C@@H](CCC(N)=O)C(=O)NC(C)(C)C(=O)N[C@@H](CC(=O)O)C(=O)N[C@@](C)(Cc1ccccc1)C(=O)N[C@H](C(=O)N[C@@H](CCC(=O)O)C(=O)N[C@@H](Cc1ccncc1)C(=O)N[C@@H](CC(C)C)C(=O)N[C@@H](CC(C)C)C(=O)N[C@@H](C)C(=O)NCC(=O)NCC(=O)N1CCC[C@H]1C(=O)N[C@@H](CO)C(=O)N[C@@H](CO)C(=O)NCC(=O)N[C@@H](C)C(=O)N1CCC[C@H]1C(=O)N1CCC[C@H]1C(=O)N1CCC[C@H]1C(=O)N[C@@H](CO)C(N)=O)C(C)C)[C@@H](C)CC) [Example 56] | 0.0487 nM | 193 nM | 530 nM |
| YXEGTXISDYSIXLDXKHQXDFVEXLLEGGPSSGAPPPS (Aib2; Iva6; αMeL13; Orn16; K17((2-[2-(2-Amino-ethoxy)-ethoxy]-acetyl)2-(γ-Glu)-CO-(CH2)18-CO2H); Aib20; 4-Pal25; C-terminal amide) [Example 76] | 0.0293 nM | 358 nM | 263 nM |
| Y[Aib]EGTFISDYSI[αMeL]LD[Orn]K([AEEA-AEEA-γGlu-C20 diacid])HQ[Aib]DFVE[4Pal]LLEQGPSSGAPPPS-NH2 (N-terminus assumed; SMILES CC[C@H](C)[C@H](NC(=O)[C@H](Cc1ccccc1)NC(=O)[C@@H](NC(=O)CNC(=O)[C@H](CCC(=O)O)NC(=O)C(C)(C)NC(=O)[C@@H](N)Cc1ccc(O)cc1)[C@@H](C)O)C(=O)N[C@@H](CO)C(=O)N[C@@H](CC(=O)O)C(=O)N[C@@H](Cc1ccc(O)cc1)C(=O)N[C@@H](CO)C(=O)N[C@H](C(=O)N[C@@](C)(CC(C)C)C(=O)N[C@@H](CC(C)C)C(=O)N[C@@H](CC(=O)O)C(=O)N[C@@H](CCCN)C(=O)N[C@@H](CCCCNC(=O)COCCOCCNC(=O)COCCOCCNC(=O)CC[C@H](NC(=O)CCCCCCCCCCCCCCCCCCC(=O)O)C(=O)O)C(=O)N[C@@H](Cc1c[nH]cn1)C(=O)N[C@@H](CCC(N)=O)C(=O)NC(C)(C)C(=O)N[C@@H](CC(=O)O)C(=O)N[C@@H](Cc1ccccc1)C(=O)N[C@H](C(=O)N[C@@H](CCC(=O)O)C(=O)N[C@@H](Cc1ccncc1)C(=O)N[C@@H](CC(C)C)C(=O)N[C@@H](CC(C)C)C(=O)N[C@@H](CCC(=O)O)C(=O)N[C@@H](CCC(N)=O)C(=O)NCC(=O)N1CCC[C@H]1C(=O)N[C@@H](CO)C(=O)N[C@@H](CO)C(=O)NCC(=O)N[C@@H](C)C(=O)N1CCC[C@H]1C(=O)N1CCC[C@H]1C(=O)N1CCC[C@H]1C(=O)N[C@@H](CO)C(N)=O)C(C)C)[C@@H](C)CC) [Example 81] | 0.0374 nM | 699 nM | 714 nM |
| Y[Aib]EGTFISDYSI[αMeL]LD[Orn]K([AEEA-AEEA-γGlu-C20 diacid])HQ[Aib]DFVE[4Pal]LLEGGPSSGAPPPS-NH2 (N-terminus assumed; SMILES CC[C@H](C)[C@H](NC(=O)[C@H](Cc1ccccc1)NC(=O)[C@@H](NC(=O)CNC(=O)[C@H](CCC(=O)O)NC(=O)C(C)(C)NC(=O)[C@@H](N)Cc1ccc(O)cc1)[C@@H](C)O)C(=O)N[C@@H](CO)C(=O)N[C@@H](CC(=O)O)C(=O)N[C@@H](Cc1ccc(O)cc1)C(=O)N[C@@H](CO)C(=O)N[C@H](C(=O)N[C@@](C)(CC(C)C)C(=O)N[C@@H](CC(C)C)C(=O)N[C@@H](CC(=O)O)C(=O)N[C@@H](CCCN)C(=O)N[C@@H](CCCCNC(=O)COCCOCCNC(=O)COCCOCCNC(=O)CC[C@H](NC(=O)CCCCCCCCCCCCCCCCCCC(=O)O)C(=O)O)C(=O)N[C@@H](Cc1c[nH]cn1)C(=O)N[C@@H](CCC(N)=O)C(=O)NC(C)(C)C(=O)N[C@@H](CC(=O)O)C(=O)N[C@@H](Cc1ccccc1)C(=O)N[C@H](C(=O)N[C@@H](CCC(=O)O)C(=O)N[C@@H](Cc1ccncc1)C(=O)N[C@@H](CC(C)C)C(=O)N[C@@H](CC(C)C)C(=O)N[C@@H](CCC(=O)O)C(=O)NCC(=O)NCC(=O)N1CCC[C@H]1C(=O)N[C@@H](CO)C(=O)N[C@@H](CO)C(=O)NCC(=O)N[C@@H](C)C(=O)N1CCC[C@H]1C(=O)N1CCC[C@H]1C(=O)N1CCC[C@H]1C(=O)N[C@@H](CO)C(N)=O)C(C)C)[C@@H](C)CC) [Example 82] | 0.0617 nM | 305 nM | 388 nM |

— US20210032299A1 (Eli Lilly, published 2021)
